This note sets out measurements from paper PMC7534470 (The Plant Cell, 2020).

This assay concerns the target T1, MBP-COP1 (Arabidopsis thaliana, UniProt P43254 1-675).
T1 sequence (looked up): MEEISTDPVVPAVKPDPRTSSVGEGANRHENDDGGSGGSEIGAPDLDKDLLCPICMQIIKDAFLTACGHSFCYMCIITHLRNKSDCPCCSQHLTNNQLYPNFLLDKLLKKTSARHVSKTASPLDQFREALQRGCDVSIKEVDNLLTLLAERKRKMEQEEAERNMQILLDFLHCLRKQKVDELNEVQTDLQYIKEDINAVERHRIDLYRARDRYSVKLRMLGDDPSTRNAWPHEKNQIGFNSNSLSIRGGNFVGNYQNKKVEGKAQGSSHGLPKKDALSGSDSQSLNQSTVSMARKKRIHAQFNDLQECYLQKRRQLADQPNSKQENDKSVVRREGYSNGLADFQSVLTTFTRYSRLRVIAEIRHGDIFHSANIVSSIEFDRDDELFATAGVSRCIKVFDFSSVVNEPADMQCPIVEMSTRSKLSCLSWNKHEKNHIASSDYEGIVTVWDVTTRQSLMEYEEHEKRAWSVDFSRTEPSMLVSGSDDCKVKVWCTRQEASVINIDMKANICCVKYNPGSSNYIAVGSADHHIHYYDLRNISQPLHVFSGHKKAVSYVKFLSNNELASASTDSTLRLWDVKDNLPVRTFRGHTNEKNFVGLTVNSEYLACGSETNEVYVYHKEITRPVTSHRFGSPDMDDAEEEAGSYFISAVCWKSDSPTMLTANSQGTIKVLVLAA
Briefly: pull-down.

B1: His-COR27 (natural protein, Arabidopsis thaliana, UniProt Q8L8T7 1-246, looked up)
chain: MVGDYRGRFSSRRFSDDSDDSSDDASSVEGETTSSMYSAGKEYMETEWTNEKHSLYLKSMEASFVDQLYNSLGALGKNENVSESTRFGSGRKPSQEQFKVLHDGFWQKINVKQPEHRINGRHGGNSHEFLRSPWIKHYKPLVKTQIPVTDEPENQVVSSSNGKKGICSSGSASSLKQLSSHSRDHDQISVGEAEVSDQNFVNEGIKGENGSSKKMKTVMMSESSSTDQVVPLNKLLQHDVNLKSVS
Consider B1, for which the binding result is recorded as “binds”.
